Where a chain is given by its changes, count along the chain named. In names and notes the source's numbering stands.
Experiments:
[1] = tested on: RWPE-1 cells; assay: MTT assay with Mcl-1 inhibitors, RWPE-1; assay type: cell-based, human; settings: alone or in combination with MDA-7/IL-24, 48 hrs; FIG. 26C
Procedure: Human (DU-145) CaP cells were treated with different targeted small molecules alone (FIG. 26A) or in combination with MDA-7/IL-24 (FIG. 26B), and after 48 hrs cell growth was measured by MTT. * indicates statistical significance vs. respective control group. Immortalized primary normal human prostate epithelial cells, RWPE-1, were treated with different combinations as indicated and MTT assays were performed at 48 hrs (FIG. 26C). Murine (RMI-BM) CaP cells were treated with different targeted small molecules alone (FIG. 26D) or in combination with MDA-7/IL-24 (FIG. 26E), and after 48 hrs. cell growth was measured by MTT.
To test a multi-target approach for treatment of prostate cancer bone metastases, experiments were conducted to target Mcl-1 inhibition and investigate the effects on NG-mda-7/IL-24 efficacy. Using NMR (nuclear magnetic resonance) and computational biology, two Mcl-1 inhibitors were identified (Sabutoclax and BI-97D6) and their activity was validated in immune competent mice in combination with MDA-7/IL-24. In addition to these inhibitors, three commercially available targeted inhibitors were evaluated to determine potential synergistic effects with MDA-7/IL-24. The three inhibitors were UMI-77 (showing selectivity to Mcl-1 over other members of the Bcl-2 family), Marinopyrrole A (selective inhibitor of Mcl-1), and A-1210477. […]

[2] = tested on: human prostate cancer PC3-ML cells; assay: PC3-ML intracardiac bone metastasis model in athymic nude mice; assay type: in vivo; settings: single agent, versus control group
Procedure: To test a multi-target approach for treatment of prostate cancer bone metastases, experiments were conducted to target Mcl-1 inhibition and investigate the effects on NG-mda-7/IL-24 efficacy. Using NMR (nuclear magnetic resonance) and computational biology, two Mcl-1 inhibitors were identified (Sabutoclax and BI-97D6) and their activity was validated in immune competent mice in combination with MDA-7/IL-24. In addition to these inhibitors, three commercially available targeted inhibitors were evaluated to determine potential synergistic effects with MDA-7/IL-24. The three inhibitors were UMI-77 (showing selectivity to Mcl-1 over other members of the Bcl-2 family), Marinopyrrole A (selective inhibitor of Mcl-1), and A-1210477. […] Mcl-1 expression was elevated by 1.7-fold in RM1-BM (RM1-BM cells selected for enhanced metastasis to bone) as compared to RM1 cells, indicating functional relevance of Mcl-1 in this metastatic process. […] This further supported the cancer-specificity of specific Mcl-1 inhibitors. Next, the therapeutic effect of MDA-7/IL-24 protein in combination with BI-97D6 was tested, in male athymic nude mice injected by the intracardiac route with human prostate cancer PC3-ML cells, resulting in bone metastases.

[3] = Sabutoclax and BI-97D6 in combination with MDA-7/IL-24; settings: combined with MDA-7/IL-24; earlier observation referred to
Procedure: To test a multi-target approach for treatment of prostate cancer bone metastases, experiments were conducted to target Mcl-1 inhibition and investigate the effects on NG-mda-7/IL-24 efficacy. […] In addition to these inhibitors, three commercially available targeted inhibitors were evaluated to determine potential synergistic effects with MDA-7/IL-24. […] Next, the therapeutic effect of MDA-7/IL-24 protein in combination with BI-97D6 was tested, in male athymic nude mice injected by the intracardiac route with human prostate cancer PC3-ML cells, resulting in bone metastases.

[4] = tested on: SARI; assay: SARI expression at the transcript level in transfected DU-145 cells; assay type: cell-based, human
Procedure: (§1) SARI expression was determined at the transcript level in DU-145 cells after transfection with the indicated plasmids. […] The protein expression of MDA-7/IL-24 from the conditioned media (FIG. 5) and cell lysates (FIG. 6) of HeLa cells transfected with full length MDA-7 and Insulin(sp)-MDA-7 was assayed.
(§2) Having an MDA-7/IL-24 construct with enhanced protein secretion as well as enhanced protein stability may be very valuable as a potential gene therapeutic for cancer. Accordingly, lysine 122 was mutated to arginine in the Insulin(sp)-MDA-7 construct using site-directed mutagenesis. […] PARP cleavage and the expression of GRP-78 were also assessed in DU-145 cells following transfection with MDA-7(sp)-MDA-7 (wild type MDA-7 signal peptide), Insulin(sp)-MDA-7, MDA-7(sp)-MDA-7(K122R) and Insulin(sp)-MDA-7(K122R) (FIG. 13).
(§3) PARP cleavage and the expression of GRP-78 were also evaluated in DU-145 cells following transfection with these four constructs, the results for which are shown in FIG. 20.

[5] = tested on: DU-145 cells; assay: MTT assay, DU-145 cells treated with conditioned media from transfected HeLa cells; assay type: cell-based, human; settings: vs control conditioned media, FIG. 9
Text: (§4) Next, lysine 122 of MDA-7/IL-24 was converted to arginine by site directed mutagenesis using forward primer (5′-[…]-3′) (SEQ ID NO: 19) and reverse primer (5′-[…]-3′) (SEQ ID NO: 20). […] These enzymes are capable of reducing the tetrazolium dye MTT 3-(4,5-dimethylthiazol-2-yl)-2,5-diphenyltetrazolium bromide to its insoluble formazan, which has a purple color.

[6] = tested on: HeLa cells; assay: MDA-7/IL-24 protein in conditioned media and lysates of transfected HeLa cells (Western blotting); assay type: cell-based, human
Procedure: as §1, §4

[7] = tested on: HeLa cells; assay: MTT assay following transfection of HeLa cells with constructs; assay type: cell-based, human; settings: for proliferation (MTT): following transfection of HeLa cells, FIG. 14
Text: as §4, §2, §3

[8] = tested on: HeLa cells; assay: MTT assay, HeLa cells treated with conditioned media from transfected HeLa cells; assay type: cell-based, human; settings: vs control conditioned media, FIG. 8
Text: as §4

[9] = tested on: DU-145 cells; assay: ELISA of MDA-7/IL-24 protein in conditioned media of transfected DU-145 cells; assay type: cell-based, human; settings: DU-145 cells transfected; FIG. 10
Procedure: In an effort to enhance its anti-cancer activity, genetic engineering experiments were conducted to enhance MDA-7/IL-24 secretion. Five different signal peptides (abbreviated “sp”) were introduced, linked to MDA-7/IL-24, and assessed for protein secretion. The five signal peptides tested were endogenous human MDA-7/IL-24, human IL-2, human Insulin, Flt-3 and human BM40 (osteonectin/SPARC) signal peptides. The constructs were designated MDA-7(sp)-MDA-7 (wild type MDA-7 signal peptide), IL-2(sp)-MDA-7, Insulin(sp)-MDA-7, Flt-3(sp)-MDA-7 and BM40(sp)-MDA-7, respectively. Each of these constructs also included a Histidine-tag. These constructs were transfected into DU-145 cells (human prostate cancer cells).
The presence of MDA-7/IL-24 in the conditioned media was assessed by enzyme-linked immunosorbent assay (ELISA) and results are shown in FIG. 2.
as §2

[10] = tested on: DU-145 cells; assay: MDA-7/IL-24 transcript level (RTQ-PCR) in transfected DU-145 cells; assay type: cell-based, human; settings: DU-145 cells transfected; FIG. 11
[11] = tested on: DU-145 cells; assay: M4 expression in conditioned media of transfected DU-145 cells (ELISA); assay type: cell-based, human; settings: compared to the other 3 signal peptides, FIG. 17
Procedure: To determine if different sequence motifs could enhance the secretion of M4 over Flt-3(sp)-M4, three additional signal peptides linked to M4 were introduced and protein secretion was assessed. The four signal peptides tested were endogenous human MDA-7/IL-24, human IL-2, human Insulin, and Flt-3 signal peptides. The constructs were designated MDA-7(sp)-M4 (wildtype MDA-7/IL-24 secretory peptide), IL-2(sp)-M4, Insulin(sp)-M4, and Flt-3(sp)-M4, respectively, and a schematic illustration is shown in FIG. 16. Each of these constructs also included a Histidine-tag. These constructs were transfected into DU-145 cells and assessed for expression of M4 in the conditioned media (FIG. 17) and at the transcript level (FIG. 18). An MDA-7/IL-24 antibody and RT-Q-PCR primers able to detect M4 were used to assess M4 expression.
as §3

[12] = tested on: DU-145 cells; assay: MTT assay, DU-145 cells treated with conditioned media from transfected IM-PHFA cells; assay type: cell-based, human; settings: compared to the control, FIG. 24
Text: (§5) As noted in Example 1, improvements were obtained by mutating lysine at position 122 to arginine in full-length MDA-7/IL-24. The corresponding lysine was identified in M4 and mutated to arginine using site directed mutagenesis using forward primer (5′-[…]-3′) (SEQ ID NO: 19) and reverse primer (5′-[…]-3′) (SEQ ID NO: 20). Next, Flt-3(sp)-M4 and Flt-3(sp)-M4(K122R) were transfected into DU-145 cells. […] The conditioned media from transfected IM-PHFA (immortalized primary human fetal astrocytes) cells was added to DU-145 cells and MTT assays were performed (FIG. 24).

[13] = tested on: DU-145 cells; assay: M4 protein in lysate and conditioned media of transfected DU-145 cells; assay type: cell-based, human; settings: K122R versus Flt-3(sp)-M4, FIG. 22
Text: as §5

O=C(c1ccccc1O)c1[nH]c(Cl)c(Cl)c1-n1c(C(=O)c2ccccc2O)cc(Cl)c1Cl [Marinopyrrole A]
anti-proliferative effects (MTT) [1]: anti-proliferative effects

BI-97D6 [reference compound]
bone metastases [2]: statistically significant inhibition of bone metastases
antitumor synergy [3]: antitumor synergy

B1: Insulin(sp)-MDA-7: human Insulin signal peptide linked to MDA-7/IL-24, Histidine-tag; encoded by SEQ ID NO: 6 (protein)
chain: MALWMRLLPLLALLALWGPDPAAAHHHHHHENLYFQGMQEFHFGPCQVKGVVPQKLWEAFWAVKDTMQAQDNITSARLLQQEVLQNVSDAESCYLVHTLLEFYLKTVFKNYHNRTVEVRTLKSFSTLANNFVLIVSQLQPSQENEMFSIRDSAHRRFLLFRRAFKQLDVEAALTKALGEVDILLTWMQKFYKL
SARI expression at the transcript level ([4]; DU-145 cells, five signal peptide MDA-7 constructs, FIG. 4): highest SARI expression
proliferation (MTT) [5]: decrease in proliferation
MDA-7/IL-24 protein secretion ([6]; HeLa cells, versus full length MDA-7, FIGS. 5, 6): dramatic increase in MDA-7/IL-24 protein secretion
proliferation (MTT) [7]: decrease in proliferation
proliferation (MTT) [8]: decrease in proliferation

B2: Insulin(sp)-MDA-7(K122R): insulin signal peptide fused to the K122R mutation variant of MDA-7/IL-24; encoded by SEQ ID NO: 11 (protein)
chain: B1 chain with K109R
SARI induction at the transcript level ([4]; compared to Insulin(sp)-MDA-7 or MDA-7 containing K122R, FIG. 12): highest SARI induction
MDA-7/IL-24 expression in the conditioned media using ELISA [9]: enhanced MDA-7/IL-24 expression
proliferation (MTT) [7]: decrease in proliferation
MDA-7/IL-24 expression at the transcript level using RTQ-PCR [10]: enhanced MDA-7/IL-24 expression

B3: MDA-7(sp)-MDA-7(K122R): MDA-7/IL-24 with lysine 122 converted to arginine; encoded by SEQ ID NO: 10 (protein, UniProt Q13007 1-206, looked up, variant K122R)
chain: MNFQQRLQSLWTLARPFCPPLLATASQMQMVVLPCLGFTLLLWSQVSGAQGQEFHFGPCQVKGVVPQKLWEAFWAVKDTMQAQDNITSARLLQQEVLQNVSDAESCYLVHTLLEFYLKTVFRNYHNRTVEVRTLKSFSTLANNFVLIVSQLQPSQENEMFSIRDSAHRRFLLFRRAFKQLDVEAALTKALGEVDILLTWMQKFYKL
modifications: full-length
proliferation (MTT) [5]: decrease in proliferation
protein in the conditioned media by Western blotting ([6]; HeLa cells transfected, FIG. 5): increase in protein
protein in cell lysate by Western blotting ([6]; HeLa cells transfected, FIG. 6): increase in protein
proliferation (MTT) [7]: decrease in proliferation
proliferation (MTT) [8]: decrease in proliferation

B4: Insulin(sp)-M4: human Insulin signal peptide linked to M4; encoded by SEQ ID NO: 12 (protein)
chain: MALWMRLLPLLALLALWGPDPAAAHHHHHHENLYFQGMESCYLVHTLLEFYLKTVFKNYHNRTVEVRTLKSFSTLANNFVLIVSQLQPSQENEMFSIRDSAHRRFLLFRRAFKQLDVEAALTKALGEVDILLTWMQKFYKL
SARI expression ([4]; DU-145 cells, four signal peptide M4 constructs, FIG. 19): highest SARI expression
growth (MTT) ([7]; M4 constructs, transfection of HeLa cells, FIG. 21): growth suppression
M4 protein secretion [11]: enhanced M4 protein secretion to a greater extent

B5: Flt-3(sp)-M4(K122R): Flt-3(sp)-M4 with the corresponding lysine mutated to arginine; encoded by SEQ ID NO: 16 (protein)
chain: MTVLAPAWSPTTYLLLLLLLSGSESCYLVHTLLEFYLKTVFRNYHNRTVEVRTLKSFSTLANNFVLIVSQLQPSQENEMFSIRDSAHRRFLLFRRAFKQLDVEAALTKALGEVDILLTWMQRFYKLGGSHHHHHH
cell growth (MTT) [12]: cell growth suppression
protein in cell lysates [13]: increase in protein
protein in the conditioned media [13]: increase in protein

B6: Flt-3(sp)-M4: Flt-3 signal peptide linked to M4; encoded by SEQ ID NO: 14 (protein)
chain: B5 chain with R42K, R122K
cell growth (MTT) [12]: cell growth suppression

From patent publication US12325863B2, “MDA-7/IL-24 secretory variants and methods of use” (Virginia Commonwealth University, priority 2018, dated 2025)
